Test results: patent publication US20170015742A1 (published 2017)

Assays:
Human VEGF-A 165 [1] = target: T1, Human VEGF-A 165 (human, UniProt P15692 207-395); assay: cell-based or functional assay
human VEGF111 = target: T2, human VEGF111 (human, UniProt P15692-10 27-137); assay: cell-based or functional assay
T2 sequence (looked up): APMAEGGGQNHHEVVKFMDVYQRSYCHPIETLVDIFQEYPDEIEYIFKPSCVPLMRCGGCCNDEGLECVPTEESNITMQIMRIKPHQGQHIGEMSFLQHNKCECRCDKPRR

Human VEGF-A 165 [2] = target: T1, Human VEGF-A 165; assay: SPR (Biacore), antibody captured by anti-human Fc, hVEGF165 as analyte
Protocol: (§1) For example, approximately 9000 RU of goat anti-human Fc specific polyclonal antibody (Thermo Fisher Scientific Inc., Rockford, Ill.) diluted in 10 mM sodium acetate (pH 4.5) is directly immobilized across a CM5 research grade biosensor chip using a standard amine coupling kit according to manufacturer's instructions and procedures at 25 μg/ml. Unreacted moieties on the biosensor surface were blocked with ethanolamine. For kinetic analysis, rate equations derived from the 1:1 Langmuir binding model were fitted simultaneously to multiple antigen injections (using global fit analysis) with the use of Scrubber 2 (BioLogic Software), Biacore Biaevaluation 4.0.1 software or Biacore T100 Evaluation software. Purified antibodies or DVD-Ig molecules were diluted in running buffer for capture across goat anti-human Fc reaction surfaces. Antibodies or DVD-Ig molecules to be captured as a ligand (1 μg/ml) were injected over reaction matrices at a flow rate of 10 μl/minute. During the assay, all measurements were referenced against the capture surface alone (i.e., with no captured antibody or DVD-Ig molecule). […] The equilibrium dissociation constant KD (M) of the reaction between antibodies and the target antigen was then calculated from the kinetic rate constants by the following formula: KD=Koff/Kₒₙ. Binding was recorded as a function of time and kinetic rate constants were calculated.

Human VEGF-A 165 [3] = target: T1, Human VEGF-A 165; assay: receptor competition ELISA: antibody titrated against biotinylated hVEGF165, binding to coated hVEGF-R2-Fc read
Protocol: To identify molecules that could block the binding of hVEGF₁₆₅ to the hVEGF-R2 (KDR/Flk-1) receptor, a competition ELISA was performed. […] Plates were then washed four times with wash buffer (TBS, 0.05% Tween-20) and blocked with Superblock blocking buffer (Thermo Scientific, cat#37535). […] The pre-incubated sample/hVEGF₁₆₅ complex was added to the coated plate at 50 μL in duplicate and incubated for 30 minutes at 25° C. with shaking. Following incubation, plates were washed four times with wash buffer. Streptavidin-polyHRP-40 (Fitzgerald cal#65r-s104phrp) was diluted in assay diluent (10% Superblock containing 0.05% surfactamps) and added to plates (50 μL) for 45 minutes at 25° C. with shaking. Plates were washed four times with wash buffer and developed with the addition of Enhanced K-blue TMB substrate (Neogen cat#308177). The reaction was stopped with 2N sulfuric acid (VWR, cat# BDH3500-1) and the absorbance was read at 450 nm-570 nm. A decrease in observed optical density indicates the test molecule is blocking the hVEGF₁₆₅ binding to the hVEGF-R2-Fc. Data was analyzed using Softmax Pro 4.8 software and IC₅₀ values calculated using a sigmoidal dose response (variable slope) fit in GraphPad Prism 5.

[4] = target: T3, recombinant human PDGF-BB (human, UniProt P01127 82-190, biotin-labelled in the binding and competition ELISAs (sites not given)); assay: Biacore SPR, antibody captured, PDGF-BB injected
T3 construct: Bought protein (CST cat#8912BF) in the ELISAs and cell assays; purified recombinant PDGF-BB in Biacore; also called huPDGF-BB; hPDGF-BB
Protocol: as §1

[5] = target: T4, human VEGF 165 (PR-1350437) (human, UniProt P15692 207-395); assay: SPR (Biacore), mAb captured by anti-human Fc, antigen injected
T4 construct: Purified recombinant protein; also called hVEGF165
Protocol: as §1, with “Unreacted” for “For example, approximately 9000 RU of goat anti-human Fc specific polyclonal antibody (Thermo Fisher Scientific Inc., Rockford, Ill.) diluted in 10 mM sodium acetate (pH 4.5) is directly immobilized across a CM5 research grade biosensor chip using a standard amine coupling kit according to manufacturer's instructions and procedures at 25 μg/ml. Unreacted”, “calculated. In this assay, on-rates as fast as 10⁶M⁻¹s⁻¹ and off-rates as slow as 10⁻⁶ s⁻¹ could be measured.” for “calculated.”

[6] = target: T5, human VEGF 121 (PR-1515941) (human, UniProt P15692 207-395); assay: as above
T5 construct: Recombinant isoform; also called hVEGF121
T5 sequence: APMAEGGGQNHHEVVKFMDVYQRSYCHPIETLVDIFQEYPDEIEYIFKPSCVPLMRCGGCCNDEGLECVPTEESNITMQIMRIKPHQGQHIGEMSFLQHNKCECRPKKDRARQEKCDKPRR
Protocol: as §1, with “Unreacted” for “For example, approximately 9000 RU of goat anti-human Fc specific polyclonal antibody (Thermo Fisher Scientific Inc., Rockford, Ill.) diluted in 10 mM sodium acetate (pH 4.5) is directly immobilized across a CM5 research grade biosensor chip using a standard amine coupling kit according to manufacturer's instructions and procedures at 25 μg/ml. Unreacted”, “calculated. In this assay, on-rates as fast as 10⁶M⁻¹s⁻¹ and off-rates as slow as 10⁻⁶ s⁻¹ could be measured.” for “calculated.”

[7] = target: T6, human VEGF 111 (PR-1520687) (human, UniProt P15692-10 27-137); assay: as above
T6 construct: also called hVEGF111
T6 sequence (looked up): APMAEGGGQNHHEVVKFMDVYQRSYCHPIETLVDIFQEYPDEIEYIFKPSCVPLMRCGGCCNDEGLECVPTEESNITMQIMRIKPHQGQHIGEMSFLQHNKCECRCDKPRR
Protocol: as §1, with “Unreacted” for “For example, approximately 9000 RU of goat anti-human Fc specific polyclonal antibody (Thermo Fisher Scientific Inc., Rockford, Ill.) diluted in 10 mM sodium acetate (pH 4.5) is directly immobilized across a CM5 research grade biosensor chip using a standard amine coupling kit according to manufacturer's instructions and procedures at 25 μg/ml. Unreacted”, “calculated. In this assay, on-rates as fast as 10⁶M⁻¹s⁻¹ and off-rates as slow as 10⁻⁶ s⁻¹ could be measured.” for “calculated.”

B1: chBEW-9A8 (antibody, human IgG1, kappa, L234A L235A, V domains shown)
VH: QIQLVQSGPELKKPGESVKISCKASGYTFTNYGMYWVKQAPGQGLQYMGWINTETGKPIYADDFKGRFVFFLETSASTAYLQINNLKNEDMATFFCARVDYDGSFWFAYWGQGTLVTVSS
VL: DTVLTQSPALAVSPGERVSISCRASESVSTVIHWYQQKPGQQPKLLIHGASNLESGVPARFSGSGSGTDFTLTIDPVEADDTATYFCQQHWNDPPTFGAGTKLEMKR
huVEGF-A165 Neutralization Potency in HMVEC-d cells (Human VEGF-A 165 [1]): 26 pM
Phospho-Tyr1054/huVEGF-A111 Neuterlization (human VEGF111): 0.26 nM
Kd (Human VEGF-A 165 [2]): ≤ 0.11 pM
kon (Human VEGF-A 165 [2]): 8.9e+06 M⁻¹ s⁻¹
IC50 (Human VEGF-A 165 [3]): 97 pM

B2: BFU-11A8-D6-C3 (antibody, V domains shown)
VH: EVQLQQSGPELQRPGASVKLSCKASGYTFTESYIYWVKQRPEQSLELIGRIDPEDGSTDYVEKFKNKATLTADTSSNTAYMQLSSLTSEDTATYFCARFGARSYFYPMDAWGQGTSVTVSS
VL: DTVLTQSPTLAVSPGERVSIPCRASESVSTLMHWYQQKPGQQPRLLIYGASNLESGVPARFSGSGSGTDFTLTIDPVEADDTATYFCQQSWNDPWTFGGGTKLELK
Kd [4]: ≤ 0.047 pM
koff [4]: ≤ 1e-06 s⁻¹
kon [4]: 2.1e+07 M⁻¹ s⁻¹

B3: AB642 (9E10.1), PR-1594047 (antibody, V domains shown)
VH: EIQLVQSGSELKKPGASVKVSCKASGYTFTNYGMYWVKQAPGQGLEYMGWIDTETGRPTYADDFKGRFVFSLDTSVSTAYLQISSLKAEDTAVYFCARWSGDTTGIRGPWFAYWGQGTLVTVSS
VL: DIRMTQSPSSLSASVGDRVTIECLASEDIYSDLAWYQQKPGKSPKLLIYNANGLQNGVPSRFSGSGSGTDYSLTISSLQPEDVATYFCQQYNYFPGTFGQGTKLEIK
notes: Parental anti-VEGF mAb of PR-1610561; Humanized IgG; also called hBEW-9E10.1
Kd [5]: 1.8 pM
koff [5]: 2.8e-05 s⁻¹
kon [5]: 1.6e+07 M⁻¹ s⁻¹
Kd [6]: 21 pM
koff [6]: 6.8e-05 s⁻¹
kon [6]: 3.2e+06 M⁻¹ s⁻¹
Kd [7]: 58 pM
koff [7]: 0.0001 s⁻¹
kon [7]: 1.8e+06 M⁻¹ s⁻¹
